Literature values in patent CN114306299A, “贝利司他在制备缓解和/或治疗缺血性脑卒中药物中的应用” (Institute of Materia Medica of CAMS and PUMC, priority 2020, dated 2022).

Tested on: stroke (脑卒中)
Conditions: clinical studies, fraction of patients

B1: t-PA: 美国FDA唯一批准用于治疗脑卒中的药物 (protein, UniProt P00750 36-562, looked up)
Tissue-type plasminogen …: SYQVICRDEKTQMIYQQHQSWLRPVLRSNRVEYCWCNSGRAQCHSVPVKSCSEPRCFNGGTCQQALYFSDFVCQCPEGFAGKCCEIDTRATCYEDQGISYRGTWSTAESGAECTNWNSSALAQKPYSGRRPDAIRLGLGNHNYCRNPDRDSKPWCYVFKAGKYSSEFCSTPACSEGNSDCYFGNGSAYRGTHSLTESGASCLPWNSMILIGKVYTAQNPSAQALGLGKHNYCRNPDGDAKPWCHVLKNRRLTWEYCDVPSCSTCGLRQYSQPQFRIKGGLFADIASHPWQAAIFAKHRRSPGERFLCGGILISSCWILSAAHCFQERFPPHHLTVILGRTYRVVPGEEEQKFEVEKYIVHKEFDDDTYDNDIALLQLKSDSSRCAQESSVVRTVCLPPADLQLPDWTECELSGYGKHEALSPFYSERLKEAHVRLYPSSRCTSQHLLNRTVTDNMLCAGDTRSGGPQANLHDACQGDSGGPLVCLNDGRMTLVGIISWGLGCGQKDVPGVYTKVTNYLDWIRDNMRP
patients in whom treatment is ineffective or condition worsens (after t-PA treatment): 三分之二
patients in whom t-PA is effective: 三分之一
